Two sequences from patent publication US8796227B2, “Peptides for inhibiting chemokine binding to chemokine receptors” (Biokine Therapeutics Ltd., priority 2002, dated 2014) can be followed below.

Experiment [1] concerns the target T1, IL-8 (Homo sapiens, UniProt P10145).
T1 construct: human IL-8, (72 amino acids) (Cat. No. 200-08M); purchased PeproTech, Inc. 200-08M
T1 sequence (P10145 28-99): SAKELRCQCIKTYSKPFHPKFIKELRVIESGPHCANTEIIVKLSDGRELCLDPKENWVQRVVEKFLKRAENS
Briefly: Biovalidation: laminar flow assay, chemokine and VCAM-1 activated adhesion of T cells. The experiment is classed as cell-based. Details: key to Level of Antagonistic Effect / Level of Effect: + 20%; ++ 50%; +++ 100%; − No effect. As to conditions: VCAM-1.

The target in experiment [2] is T2, SDF-1α (Homo sapiens, UniProt P48061).
T2 construct: purchased PeproTech, Inc. 300-28A
The experiment is described as above. In kind it is cell-based. How it is done: (§1) 50 ml blood was added to 10 ml Dextran (Dextran T-500 6% w/v) in PBS (phosphate buffer saline), and 7 ml citrate buffer (25 g citrate, 8 g citric acid in 500 ml PBS). The solution was incubated for 30 min at 25° C. 10 ml Ficoll 1077 (Sigma) was added to the bottom of the tube. The tube was then centrifuged at 2,000 rpm for 30 min, at 18° C., (with the brake mode of the centrifuge off). The interphase was collected and washed twice with 8 ml PBS-5% FCS (fetal calf serum), followed by centrifugation at 1,400 rpm, for 5 min, at 18° C. The cells were re-suspended in PBS-5% FCS at a concentration less than 10^8/ml. 2 ml of the cell solution were applied and incubated for 45 min at 25° C. on a Perspex Nylon wool column, which was pre-soaked with PBS-5% FCS. Each column was washed with 8 ml PBS-5% FCS and the cells (T-cells and erythrocytes) were eluted by 50 ml of 5 mM EDTA in PBS. A red pellet was obtained by centrifugation at 1,400 rpm, at 4° C., for 5 min, with the brake on. In order to perform lysis of the erythrocytes, the red pellet was re-suspended in 5 ml lysis-buffer (155 mM NH4Cl, 10 mM KHCO3, 0.1 mM EDTA, X0.1PBS) for 4 min, followed by immediate addition of 50 ml of PBS-EDTA.
(§2) Following centrifugation at 1,400 rpm, at 4° C., for 5 min with brake on, the pellet was washed again with 50 ml PBS-EDTA and re-centrifuged under the same conditions. A white pellet was obtained and re-suspended in RPMI/10% FCS/L-glutamine/sodium pyruvate/antibiotics at a concentration of 3^X10^6 cells/ml. The cells were incubated for 2 h at 37° C., followed by collection of the non-adherent cells. The cells were ready for use in experiments after overnight incubation at 37° C. […]
Laminar flow assays were performed as follows. […] The number of adherent cells resisting detachment by the elevated shear forces was determined after each interval by analysis of videotaped cell images, and was expressed as the percent of originally settled cells. […]

Experiment [3] has as its target T3, Eotaxin (Homo sapiens, UniProt P51671).
T3 construct: purchased PeproTech, Inc. 300-21
Described as above. In kind it is cell-based.

Experiment [4] deals with T4, MIG (Homo sapiens, UniProt Q07325).
T4 construct: purchased PeproTech, Inc. 300-26
T4 sequence (Q07325 23-125): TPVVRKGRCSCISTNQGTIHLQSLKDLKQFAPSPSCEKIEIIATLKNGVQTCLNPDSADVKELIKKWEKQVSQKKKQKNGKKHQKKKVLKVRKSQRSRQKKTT
The description is as above. The experiment is classed as cell-based. As to conditions: T cell adhesion under flow, VCAM-1. How it is done: as §1, §2
Laminar flow assays were performed as follows. Polystyrene plates (B.D) were coated with soluble VCAM-1 at 10 μg/ml in the presence of 2 μg/ml HSA carrier. The plates were washed three times with PBS and blocked with HSA (20 μg/ml in PBS) for 2 hrs at room temperature. Alternatively, washed plates were coated with 10 μg/ml MIG chemokine in PBS for 30 min at room temperature, before being blocked with HSA. The plates were assembled as the lower wall of a parallel wall flow chamber and mounted on the stage of an inverted microscope. The peptide, as described previously, (10 μg/ml) was allowed to settle on the substrate coated chamber wall for 10 min, at 37° C. and then washed. T cells (5×10^6/ml, purity >98%) were suspended in binding buffer, perfused into the chamber and allowed to settle on the substrate coated chamber wall for 1 min, at 37° C. Flow was initiated and increased in 2 to 2.5 fold increments every 5 sec. generating controlled shear stresses on the wall. Cells were visualized in a 20× objective of an inverted phase-contrast Diaphot Microscope (Nikon, Japan) and photographed with a long integration LIS-700 CCD video camera (Applitech; Holon, Israel), connected to a video recorder (AG-6730 S-VHS, Panasonic, Japan). The number of adherent cells resisting detachment by the elevated shear forces was determined after each interval by analysis of videotaped cell images, and was expressed as the percent of originally settled cells. All adhesion experiments were performed at least three times on multiple test fields.

In experiment [5] the test system is chemokines MCP-1, SDF-1α, MIG, Eotaxin and IL-8. In words: ELISA binding to the panel of chemokines (chemokine not singled out). Details: species or system human. Particulars: five chemokines tested, control binding level = one fold. How it is done: (§3) Recombinant chemokines were ordered from PeproTech, Inc. (Rocky Hill, N.J., USA). Human SDF-1α (Cat. No. 300-28A), human MIG (Cat. No. 300-26) and human IL-8, (72 amino acids) (Cat. No. 200-08M), belong to the alpha-chemokines (C-X-C) family. Human MCP-1 (MCAF) (Cat. No. 300-04) and human Eotaxin (Cat No. 300-21) belong to the beta-chemokines (C-C family). All chemokines were prepared according to the company recommendations.
(§4) Peptides were synthesized in the Weizmann Institute of Science, Rehovot, Israel, in order to perform tests for characterization of their influence on the biological activity of the chemokines. The format of the various synthesized peptides was as follows: The cyclic peptides, ACX7CGGGSK-biotin-G and the linear peptides, X12GGGSK-biotin-G. The peptides were biotinylated on their C-termini; the biotin will serve as a detector during the following experiments. Each synthetic peptide was dissolved to concentration of 1 mg/ml (˜0.6 mM) in 4% DMSO (Dimethyl Sulphoxide, Sigma, Cat. # D-2650).
(§5) NUNC-Immuno™ MaxiSorp™ plates (Cat. No. 4-42404) were coated with the appropriate chemokine (0.1 ml/well, 0.1-1.0 μg/ml in 0.1 M NaHCO3, pH 8.6), overnight at 4° C. The plates were then blocked with 0.2 ml/well of blocking buffer (5 mg/ml BSA in 0.1 NaHCO3). Control wells were treated with blocking buffer alone, with no addition of target protein (chemokine). The plates were washed 6 times with PBST (0.1% Tween 20 in PBS), followed by incubation for 45 minutes at room temperature with 10-fold serial dilutions of individual synthetic peptides (10pg-10 μg) with 1% BSA (PBST-BSA)/well. After the plates were washed 6 times with PBST, the bound peptides were probed by HRP-SA Conjugate, diluted 1:10,000 to 1:20,000 in PBST-BSA, 0.1 ml/well for 45 minutes at room temperature. The target-bound synthetic peptides probed with HRP-SA were quantified by DAKO TMB one-step substrate system, followed by the addition of stop solution, HCl—H2SO4 mixture (0.1 ml/well) (1N HCl, 3N H2SO4). The results were analyzed by ELISA reader at OD450.
The present invention identifies chemokine-binding peptides with biological activity. The binding specificities of the various peptides to the chemokines were determined by screening against BSA, Actin and Fibronectin-coated wells as negative controls in parallel experiments. […]
The specific binding of the peptides was detected by screening methodology, using ELISA, as described in “Materials and Methods”, employing microplates coated with the various chemokines to be checked. The binding specificities of the various peptides to the various chemokines were determined by screening against BSA, Actin and Fibronectin-coated wells as negative controls in parallel experiments. […]
For orientation: An ELISA detects its analyte on a solid surface through an enzyme-linked reagent.

Experiment [6] has as its target T2, SDF-1α. Briefly: ELISA analysis of the synthetic chemokine-binding peptide. As to conditions: chemokine-coated wells, specific binding = at least two fold of binding to control proteins (BSA, Actin, Fibronectin). How it is done:
as §3, §4, §5
The present invention identifies chemokine-binding peptides with biological activity. The binding specificities of the various peptides to the chemokines were determined by screening against BSA, Actin and Fibronectin-coated wells as negative controls in parallel experiments. The binding level of the peptides to the various chemokines, which reached at least two fold of the binding level to the control proteins, was considered a specific binding.
The specific binding of the peptides was detected by screening methodology, using ELISA, as described in “Materials and Methods”, employing microplates coated with the various chemokines to be checked. The binding specificities of the various peptides to the various chemokines were determined by screening against BSA, Actin and Fibronectin-coated wells as negative controls in parallel experiments.
Again, the specificity of the binding, either to one chemokine or more, was established by comparing binding level with the control binding level to non-related proteins, (shown in the Figure as a broken line).

[7] abbreviates: T cell adhesion under flow, VCAM-1.

“Also recorded” adds a separate entry of the source.

T3 sequence (P51671 24-97): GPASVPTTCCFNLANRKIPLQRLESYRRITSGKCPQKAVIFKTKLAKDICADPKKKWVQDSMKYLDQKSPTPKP
T2 sequence (P48061 22-89 limits assumed): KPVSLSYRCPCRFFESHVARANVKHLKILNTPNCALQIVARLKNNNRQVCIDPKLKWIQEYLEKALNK

As to QIPQMRILHPYG [BKT-P23], the “Level of Effect” value in experiment [1] (Chemokine checked IL-8, T cells, peptide 10 μg/ml) is reported as “−”; in experiment [2] (Chemokine checked SDF-1α, T cells, VCAM-1, peptide 10 μg/ml) it was “+ (+ 20%)”; in experiment [3] (Chemokine checked Eotaxin, T cells, VCAM-1, peptide 10 μg/ml), “+++ (+++ 100%)”. Moreover, the “Abolishment of the activity of IL-8” value in experiment [1] (T cell adhesion under flow) was “no effect”. The “Kind of Effect” value in experiment [2] (Chemokine checked SDF-1α) and in experiment [3] (Chemokine checked EOTAXIN) was “Antagonist” in each case. Further, the “Blocking of the activity of SDF-1α” value in experiment [2] (setting [7]) is reported as “about 20%”. In experiment [3] (setting [7]), the “Blocking of the activity of Eotaxin” value came out at 100%. Further, in experiment [4], the “Reduction of the activity of MIG” value is listed as “no effect”.

Consider SQTLPYSNAPSP [BKT-P1], for which the “Binding to the various chemokines” value in experiment [5] is given as “bind specifically to various chemokines; also recorded: specifically to more than one chemokine”. In addition, the “Bound chemokines (at least): SDF-1α” value in experiment [6] was “bind and found to bind SDF-1α”.
